This note sets out measurements from PMC11566906, “Transcription factor PbrERF114 is involved in the regulation of ethylene synthesis during pear fruit ripening”.

In data set [1] the target is T1, PbrERF114 (pear, cultivar Cuiguan?, UniProt A0A5H2MWQ4 1-250). As to the kind of experiment: BLI; saturated at 8382 nM; sentence names PbrERF24-His, but context and legend are PbrERF114; BLI: 137 mM NaCl, 4.3 mM Na2HPO4, 2.7 mM KCl, 1.4 mM KH2PO4, 0.02% Tween-20, pH 7.2 (PBS), streptavidin sensors, temperature not given; EMSA: LightShift Chemiluminescent EMSA kit, buffer not given. The following applies: protein: recombinant; tags: His; pCold-TF vector (trigger factor fusion implied); label: biotin.
T1 sequence (A0A5H2MWQ4 entry or part of it): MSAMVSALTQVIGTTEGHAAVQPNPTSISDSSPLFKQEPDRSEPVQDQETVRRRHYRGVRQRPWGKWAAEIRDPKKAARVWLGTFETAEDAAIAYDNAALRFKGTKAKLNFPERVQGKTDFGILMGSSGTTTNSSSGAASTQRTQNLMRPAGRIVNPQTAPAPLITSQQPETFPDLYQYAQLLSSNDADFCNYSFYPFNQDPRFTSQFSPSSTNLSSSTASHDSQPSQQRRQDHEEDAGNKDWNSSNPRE

For data set [2], the target named is T1, PbrERF114. As to the kind of experiment: EMSA; signal decreased with 10x, 50x, 200x cold probe; BLI: 137 mM NaCl, 4.3 mM Na2HPO4, 2.7 mM KCl, 1.4 mM KH2PO4, 0.02% Tween-20, pH 7.2 (PBS), streptavidin sensors, temperature not given; EMSA: LightShift Chemiluminescent EMSA kit, buffer not given. The following applies: protein: recombinant; tags: His; pCold-TF vector (trigger factor fusion implied); label: biotin.

B1: PbrERF24 promoter probe (dsDNA)
DNA 1: CCAGTTTACAATGGTGGCCAAGATTGTAAT
DNA 2: ATTACAATCTTGGCCACCATTGTAAACTGG
As a reminder, the Kd is the concentration at which binding is half-saturated. With B1, the Kd in data set [1] is less than 1000 nM.

B2: PbrACS3 promoter probe (PbrERF114 EMSA) (dsDNA)
DNA 1: TTACCATCTTAGGTGGCAGATGAGTTGGAC
DNA 2: GTCCAACTCATCTGCCACCTAAGATGGTAA
B2: the binding result in data set [2] is reported as “binds”.
